PMC4876375

Target: chimeric mouse h-ferritin-M6A (recombinant) (mouse | not stated)
Experiment: SEC; HiLoad 26/60 Superdex 200; 20 mM Tris-HCl pH 8, 200 mM KCl, 10% glycerol, 2 mM TCEP; elution volume compared with horse spleen ferritin (~440 kDa)

chimeric mouse h-ferritin-M6A (recombinant)
stoichiometry N: 24
